Kd and stoichiometry N data for one molecule are collected here from publication PMC5655542.

The experiment has as its target H. polygyrus Alarmin Release Inhibitor (HpARI), recombinant mature 6-His and Myc-tagged protein (Heligmosomoides polygyrus). The experiment is described as follows: SPR; BIAcore T200; HpARI captured via its 6-His tag on a Ni2+-NTA chip to 400 RU; cytokine injected (mIL-33 6.2-167 nM, hIL-33 0.062-1.67 μM); 25°C; 10 mM NaH2PO4 pH 7.5, 150 mM NaCl, 50 μM EDTA, 0.05% surfactant P20; single kinetic titration, global 1:1 fit. Background: SPR reads the build-up and loss of mass on a sensor chip optically.

Sequence of H. polygyrus Alarmin Release Inhibitor (HpARI), recombinant mature 6-His and Myc-tagged protein (Heligmosomoides polygyrus) (A0A3P7XL18 63-297): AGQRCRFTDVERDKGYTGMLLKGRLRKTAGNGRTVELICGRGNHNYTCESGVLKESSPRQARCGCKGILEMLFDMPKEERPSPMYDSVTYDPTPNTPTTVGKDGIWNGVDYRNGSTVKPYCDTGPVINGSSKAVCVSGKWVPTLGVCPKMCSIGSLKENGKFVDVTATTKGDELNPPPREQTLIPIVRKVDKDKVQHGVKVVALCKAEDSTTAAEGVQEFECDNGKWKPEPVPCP

B1: recombinant human IL-33, untreated (reduced, active form) (ligand)
chain: MKPKMKYSTNKISTAKWKNTASKALCFKLGKSQQKAKEVCPMYFMKLRSGLMIKKEACYFRRETTKRPSLKTGRKHKRHLVLAACQQQSTVECFAFGISGVQKYTRALHDSSITGISPITEYLASLSTYNDQSITFALEDESYEIYVEDLKKDEKKDKVLLSYYESQHPSNESGDGVDGKMLMVTLSPTKDFWLHANNKEHSVELHKCEKPLPDQAFFVLHNMHSNCVSFECKTDPGVFIGVKDNHLALIKVDSSENLCTENILFKLSET
Usually Kd stands for the free concentration of one partner at which half of the binding sites on the other are occupied at equilibrium, for simple one-to-one binding. The term stoichiometry N denotes the number of molecules, sites or subunits per partner or assembly. With B1, the Kd is 260 nM and the stoichiometry N amounted to 1.
